Data on 1 protein can be found in FireProtDB (doi:10.1021/bi00173a036).

For the data set the following is noted: Bos taurus, Thermal, DSC, reversible: yes, whole UniProt chain shown.

B1: Alpha-lactalbumin wild type, P00711 (protein)
chain: MMSFVSLLLVGILFHATQAEQLTKCEVFRELKDLKGYGGVSLPEWVCTTFHTSGYDTQAIVQNNDSTEYGLFQINNKIWCKDDQNPHSSNICNISCDKFLDDDLTDDIMCVKKILDKVGINYWLAHKALCSEKLDQWLCEKL
Usually Tm stands for the temperature at the midpoint of the melting transition. For B1, the “heat capacity change of unfolding” value is, setting by setting: (pH 3, 44.3 °C, acetate 10 mM) 1.3 kcal/mol/K; (pH 3.2, 29.8 °C, acetate 10 mM) 1.5 kcal/mol/K; (pH 3.2, acetate 10 mM) 0.92 kcal/mol/K; (pH 3.5, 41 °C, acetate 10 mM) 1.6 kcal/mol/K; (pH 3.5, acetate 10 mM) 1.19 kcal/mol/K; (pH 4.2, 57 °C, acetate 10 mM) 1.7 kcal/mol/K. Also, the “heat capacity change of unfolding” value runs as follows: (pH 4.2, acetate 10 mM) 1.61 kcal/mol/K; (pH 8, Tris-HCl 5 mM) 1.7 kcal/mol/K. Further, the “unfolding enthalpy (calorimetric)” value by setting is: (pH 3, 44.3 °C, acetate 10 mM) 25.6 kcal/mol; (pH 3.2, 29.8 °C, acetate 10 mM) 21.4 kcal/mol; (pH 3.2, acetate 10 mM) 36.1 kcal/mol; (pH 3.5, 41 °C, acetate 10 mM) 13.1 kcal/mol; (pH 3.5, acetate 10 mM) 47.8 kcal/mol; (pH 4.2, 57 °C, acetate 10 mM) 2.72 kcal/mol. Further, the “unfolding enthalpy (calorimetric)” value is 64.8 kcal/mol (pH 4.2, acetate 10 mM) and 70.6 kcal/mol (pH 8, Tris-HCl 5 mM). In addition, the melting temperature (Tm) was 29.8 °C (pH 3.2, acetate 10 mM); 41 °C (pH 3.5, acetate 10 mM); 57 °C (pH 4.2, acetate 10 mM); 64.3 °C (pH 8, Tris-HCl 5 mM). The “unfolding enthalpy (van 't Hoff)” value (pH 3.2, acetate 10 mM) came to 43.5 kcal/mol; the “unfolding enthalpy (van 't Hoff)” value (pH 3.5, acetate 10 mM) is 51.4 kcal/mol; the “unfolding enthalpy (van 't Hoff)” value (pH 4.2, acetate 10 mM) was 59.8 kcal/mol; the “unfolding enthalpy (van 't Hoff)” value (pH 8, Tris-HCl 5 mM) was 69.1 kcal/mol.
